Experiment [1] has as its target T1, Human full length B7-H3 (human, UniProt Q5ZPR3 29-534).
T1 construct: On 3T12 fibroblasts expressing full length human B7-H3 or on NCI-H1650 cells; signal peptide residues 1-28 stated; also called huB7-H3; CD276
T1 sequence: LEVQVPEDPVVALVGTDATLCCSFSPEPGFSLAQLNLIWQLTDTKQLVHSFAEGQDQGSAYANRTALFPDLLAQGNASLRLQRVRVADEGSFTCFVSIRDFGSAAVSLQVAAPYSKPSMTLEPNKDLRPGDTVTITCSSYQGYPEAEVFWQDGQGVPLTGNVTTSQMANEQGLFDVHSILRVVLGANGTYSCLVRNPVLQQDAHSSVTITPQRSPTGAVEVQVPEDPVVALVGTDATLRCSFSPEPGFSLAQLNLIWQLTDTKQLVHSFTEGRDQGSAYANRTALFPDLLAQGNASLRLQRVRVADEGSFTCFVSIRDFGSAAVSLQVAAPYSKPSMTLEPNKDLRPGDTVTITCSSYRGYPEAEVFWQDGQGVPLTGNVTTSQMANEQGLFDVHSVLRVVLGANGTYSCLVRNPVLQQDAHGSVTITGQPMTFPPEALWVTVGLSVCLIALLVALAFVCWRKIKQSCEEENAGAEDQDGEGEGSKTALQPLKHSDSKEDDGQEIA
Put plainly: FACS, NCI-H1650 cells. How it is done:
To generate purified chimeric antibodies, expression vectors were transiently transfected into HEK293 6E suspension cell cultures in a ratio of 60% to 40% light to heavy chain construct. 1 mg/ml of polyethylenimine (PEI) or 2.6 μL/mL of Expifectamine was used to transfect the cells. Cell supernatants were harvested after five days in shaking flasks, spun down to pellet cells, and filtered through 0.22 μm filters to separate IgG from culture contaminants. Antibody-containing supernatants were purified on Akta Pure using protein A mAb SelectSure. Columns were equilibrated in PBS pH 7.4, supernatants were then passed through the column and a wash was performed with PBS pH 7.4. IgG were eluted with 0.1 M acetic acid pH 3.5 and collected in several aliquots. Fractions containing IgG were pooled and dialyzed in PBS overnight at 4° C.
(§1) Cells were harvested from flasks when approximately 80% confluent using Gibco® Cell Dissociation Buffer. Cells were washed once in PBS/1% FBS (FACS buffer) then resuspended at 2.5×10⁶ cells/mL in FACS buffer. 100 μL of cells/well were added to a round bottom 96-well plate. 10 μL of a 10× concentration of mAb/ADC (final concentrations are indicated the figures). Wells were washed twice with FACS buffer and resuspended in 50 μL of secondary Ab (AlexaFluor 488) diluted in FACS buffer. The plate was incubated at 4° C. for one hour and washed twice with FACS buffer. Cells were resuspended in 100 μL of PBS/1% formaldehyde and analyzed on a Becton Dickinson LSRII flow cytometer. Data was analyzed using WinList flow cytometry analysis software.
In general terms: In flow cytometry, cells or beads pass a laser one at a time.

In experiment [2] the target is T2, Human B7-H3-ECD (His tag) (human, UniProt Q5ZPR3 29-461).
T2 construct: SPR analyte; also called huB7-H3; soluble ECD of human B7-H3
T2 sequence: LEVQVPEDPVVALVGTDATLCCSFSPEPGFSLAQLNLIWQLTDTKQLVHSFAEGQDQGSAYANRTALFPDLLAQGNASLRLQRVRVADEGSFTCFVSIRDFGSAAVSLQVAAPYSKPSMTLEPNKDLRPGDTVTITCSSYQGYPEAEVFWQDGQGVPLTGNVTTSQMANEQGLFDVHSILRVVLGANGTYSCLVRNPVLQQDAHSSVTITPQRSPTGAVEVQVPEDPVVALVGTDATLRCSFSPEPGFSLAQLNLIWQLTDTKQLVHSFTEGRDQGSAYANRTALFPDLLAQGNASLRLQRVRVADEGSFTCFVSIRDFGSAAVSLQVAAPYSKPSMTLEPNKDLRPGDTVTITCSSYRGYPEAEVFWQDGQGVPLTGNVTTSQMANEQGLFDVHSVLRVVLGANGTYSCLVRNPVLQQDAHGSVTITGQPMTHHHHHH
Put plainly: SPR Biacore, naked mAb. An excerpt: Biacore T200 SPR instruments were used to measure the binding kinetics of human B7-H3 (analyte) binding to various mAbs (ligands). The assay format was Fc-based capture via immobilized anti-mouse (Fc) (Pierce 31170) or immobilized anti-human (Fc) (Pierce 31125). A standard amine coupling protocol was employed to immobilize the capture reagents via primary amines to the carboxy-methyl (CM) dextran surface of CM5 sensorchips (Biacore); capture antibodies were coupled to a level of approximately 5000RU. For binding kinetic measurements the assay buffer was HBS-EP+ (Biacore): 10 mM Hepes, pH7.4, 150 mM NaCl, 3 mM EDTA, 0.05% polysorbate 20. During the assay, all measurements were referenced against the capture surface alone. Each assay cycle consisted of the following steps: 1) Capture of ligand to approximately 50RU; 2) Analyte injection over both reference and test surface, 240 μL at 80 μL/min, after which the dissociation was monitored for 900 seconds at 80 μL/min; 3) Regeneration of capture surface with low pH glycine. […] Data were processed and fit to a 1:1 binding model using Biacore T200 Evaluation Software to determine the binding kinetic rate constants, kₐ (on-rate) and kd (off-rate), and the equilibrium dissociation constant (affinity, KD).
(§2) These variants were further characterized for binding by SPR and as ADCs conjugated to the Bcl-xL inhibitor synthon (linker warhead) CZ. […] An ADC comprising chAb3 conjugated to synthon CZ was used as a control.
On the technique in general: SPR reads the build-up and loss of mass on a sensor chip optically.

The target of experiment [3] is T1, Human full length B7-H3. Put plainly: FACS, cell surface human B7-H3 (as Example 6). The method, then:
as §1
Nine anti-B7-H3 chimeric antibodies were conjugated to the Bcl-xL inhibiting (Bcl-xLi) synthon CZ (Example 2.1) using conjugation Method A described below. The resulting ADCs (anti-B7-H3 antibodies conjugated to synthon CZ) were tested for binding to cell surface human B7-H3 by FACS (as described in Example 6) and for cell cytotoxicity in cell lines expressing B7-H3. […] Table 6 provides cell surface binding and cytotoxicity activity of anti-B7-H3 chimera ADCs against breast cancer cell HCC38 expressing human B7-H3.

The target in experiment [4] is T1, Human full length B7-H3. Put plainly: FACS (Example 6 method). How it is done: as §1, §2
The target of experiment [5] is T3, Cynomolgous B7-H3 on cells (cynomolgus).
T3 construct: whole, on cells; also called cyB7-H3; cyno B7-H3
Put plainly: FACS, 3T12 transfectants.

The target in experiment [6] is T4, hB7-H3 (ELISA antigen of Tables 17 and 20) (human, UniProt Q5ZPR3 29-466, limits assumed).
T4 sequence: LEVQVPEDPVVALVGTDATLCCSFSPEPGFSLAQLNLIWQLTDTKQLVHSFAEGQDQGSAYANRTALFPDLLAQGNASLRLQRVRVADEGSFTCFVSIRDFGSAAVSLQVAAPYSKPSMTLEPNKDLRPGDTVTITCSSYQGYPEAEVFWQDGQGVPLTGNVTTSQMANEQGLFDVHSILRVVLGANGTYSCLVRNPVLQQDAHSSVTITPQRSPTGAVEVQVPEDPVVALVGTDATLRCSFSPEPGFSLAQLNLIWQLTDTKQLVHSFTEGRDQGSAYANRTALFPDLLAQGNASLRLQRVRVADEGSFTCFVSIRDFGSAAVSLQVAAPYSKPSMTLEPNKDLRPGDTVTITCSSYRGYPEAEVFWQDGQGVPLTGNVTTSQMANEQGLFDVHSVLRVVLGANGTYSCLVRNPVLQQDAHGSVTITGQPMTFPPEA
Description: ELISA.

In experiment [7] the target is T1, Human full length B7-H3. Description: cell-based or functional assay.
Experiment [8] addresses T1, Human full length B7-H3. Put plainly: FACS, 3T12 transfectants.

B1: chAb3 (antibody, IgG1, V domains shown)
VH: QVQLQQPGAELVKPGASVKLSCKASGYTFSSYWMHWVKQRPGQGLEWIGLIHPDSGSTNYNEMFKNKATLTVDRSSSTAYVQLSSLTSEDSAVYFCAGGGRLYFDYWGQGTTLTVSS
VL: DVVMTQTPLSLPVSLGDQASISCRSSQSLVHSNGDTYLRWYLQKPGQSPKLLIYKVSNRFSGVPDRFSGSGSGTDFTLKITRVEAEDLGVYFCSQSTHVPYTFGGGTKLEIK
notes: chimeric, huIgG1/k
B1: in the experiment with Human full length B7-H3 [1], it took 0.61 nM to reach a half-maximal effect (EC50). For the same molecule, in experiment [2], the Kd (usually the constant that tells how readily two partners part at equilibrium) was 19 nM.

B2: chAb3-CZ (antibody, IgG1, V domains shown)
VH: QVQLQQPGAELVKPGASVKLSCKASGYTFSSYWMHWVKQRPGQGLEWIGLIHPDSGSTNYNEMFKNKATLTVDRSSSTAYVQLSSLTSEDSAVYFCAGGGRLYFDYWGQGTTLTVSS
VL: DVVMTQTPLSLPVSLGDQASISCRSSQSLVHSNGDTYLRWYLQKPGQSPKLLIYKVSNRFSGVPDRFSGSGSGTDFTLKITRVEAEDLGVYFCSQSTHVPYTFGGGTKLEIK
modifications: synthon CZ on reduced interchain Cys
In the case of B2, the values for the EC50 with Human full length B7-H3 [3] and with Human full length B7-H3 [4] were 0.65 nM and 0.61 nM, respectively.

B3: huAb3v2.5-CZ (antibody, human IgG1, kappa, L234A L235A, V domains shown)
VH: EVQLVQSGAEVKKPGSSVKVSCKASGYTFSSYWMHWVRQAPGQGLEWIGLIHPESGSTNYNEMFKNRATLTVDRSTSTAYMELSSLRSEDTAVYYCAGGGRLYFDYWGQGTTVTVSS
VL: DIVMTQSPLSLPVTPGEPASISCRSSQSLVHSNRDTYLRWYLQKPGQSPQLLIYKVSNRFSGVPDRFSGSGSGTDFTLKISRVEAEDVGVYYCSQSTHVPYTFGGGTKVEIKR
modifications: synthon CZ on reduced interchain Cys
Consider B3, for which the EC50 (commonly the concentration needed to bring the measured effect to its halfway point) in experiment [5] amounted to 4.86 nM; in experiment [6], 0.13 nM. For the same molecule, the “EC50 nM H1650 (tumor cell cytotoxicity)” value with Human full length B7-H3 [7] stood at 0.4 nM.

B4: huAb3v2.3-CZ (antibody, V domains shown)
VH: EVQLVQSGAEVKKPGSSVKVSCKASGYTFSSYWMHWVRQAPGQGLEWIGLIHPWSGSTNYNEMFKNRATLTVDRSTSTAYMELSSLRSEDTAVYYCAGGGRLYFDYWGQGTTVTVSS
VL: DIVMTQSPLSLPVTPGEPASISCRSSQSLVHSNQDTYLRWYLQKPGQSPQLLIYKVSNRFSGVPDRFSGSGSGTDFTLKISRVEAEDVGVYYCSQSTHVPYTFGGGTKVEIK
modifications: synthon CZ on reduced interchain Cys
notes: ADC, DAR 1.1
With B4, the figures for the concentration giving a half-maximal response (EC50) (with Human full length B7-H3 [8]; in experiment [5]; in experiment [6]) were 6.5 nM, 4.03 nM and 0.11 nM, respectively.

B5: huAb3v6 (antibody, V domains shown)
VH: EVQLVQSGAEVKKPGSSVKVSCKASGYTFSSYWMHWVRQAPGQGLEWIGLIHPDSGSTNYNEMFKNRATLTVDRSTSTAYVELSSLRSEDTAVYFCAGGGRLYFDYWGQGTTVTVSS
VL: DVVMTQSPLSLPVTPGEPASISCRSSQSLVHSNGDTYLRWYLQKPGQSPQLLIYKVSNRFSGVPDRFSGSGSGTDFTLKISRVEAEDVGVYYCSQSTHVPYTFGGGTKVEIK
notes: humanized IgG
Consider B5, for which the dissociation constant Kd in experiment [2] is 0.2 nM.

B6: huAb3v5-CZ (antibody, V domains shown)
VH: EVQLVQSGAEVKKPGSSVKVSCKASGYTFSSYWMHWVRQAPGQGLEWIGLIHPDSGSTNYNEMFKNRATLTVDRSTSTAYMELSSLRSEDTAVYYCAGGGRLYFDYWGQGTTVTVSS
VL: DVVMTQSPLSLPVTPGEPASISCRSSQSLVHSNGDTYLRWYLQKPGQSPQLLIYKVSNRFSGVPDRFSGSGSGTDFTLKISRVEAEDVGVYYCSQSTHVPYTFGGGTKVEIK
modifications: synthon CZ on reduced interchain Cys
notes: ADC, DAR 3.1
For B6, it took 0.85 nM to reach a half-maximal effect with Human full length B7-H3 [4] (EC50).

B7: huAb3v1-CZ (antibody, V domains shown)
VH: EVQLVQSGAEVKKPGSSVKVSCKASGYTFSSYWMHWVRQAPGQGLEWMGLIHPDSGSTNYNEMFKNRVTITADKSTSTAYMELSSLRSEDTAVYYCARGGRLYFDYWGQGTTVTVSS
VL: DIVMTQSPLSLPVTPGEPASISCRSSQSLVHSNGDTYLRWYLQKPGQSPQLLIYKVSNRFSGVPDRFSGSGSGTDFTLKISRVEAEDVGVYYCSQSTHVPYTFGGGTKVEIK
modifications: synthon CZ on reduced interchain Cys
notes: ADC, DAR 3.6
Turning to B7, the midpoint of the response with Human full length B7-H3 [4], the EC50, lay at 1.45 nM.

B8: huAb3v3-CZ (antibody, V domains shown)
VH: EVQLVQSGAEVKKPGSSVKVSCKASGYTFSSYWMHWVRQAPGQGLEWIGLIHPDSGSTNYNEMFKNRATLTVDRSTSTAYVELSSLRSEDTAVYFCAGGGRLYFDYWGQGTTVTVSS
VL: DVVMTQSPLSLPVTPGEPASISCRSSQSLVHSNGDTYLRWYLQKPGQSPQLLIYKVSNRFSGVPDRFSGSGSGTDFTLKISRVEAEDVGVYFCSQSTHVPYTFGGGTKVEIK
modifications: synthon CZ on reduced interchain Cys
notes: ADC, DAR 3.6
Regarding B8, the EC50 with Human full length B7-H3 [4] was found to be 1.68 nM.

B9: huAb3v6-CZ (antibody, V domains shown)
VH: EVQLVQSGAEVKKPGSSVKVSCKASGYTFSSYWMHWVRQAPGQGLEWIGLIHPDSGSTNYNEMFKNRATLTVDRSTSTAYVELSSLRSEDTAVYFCAGGGRLYFDYWGQGTTVTVSS
VL: DVVMTQSPLSLPVTPGEPASISCRSSQSLVHSNGDTYLRWYLQKPGQSPQLLIYKVSNRFSGVPDRFSGSGSGTDFTLKISRVEAEDVGVYYCSQSTHVPYTFGGGTKVEIK
modifications: synthon CZ on reduced interchain Cys
notes: ADC, DAR 3.3
In the case of B9, the 50% effective concentration (EC50) with Human full length B7-H3 [4] turned out to be 1.78 nM.
